Data: patent US6403764
Changes are numbered by the printed parent chain. Names may count otherwise.

B1: IGF-I D12A displayed on phage (ligand)
chain: SPETLCGAELVAALQFVCGDRGFYFNKPTGYGSSSRRAPQTGIVDECCFRSCDLRRLEMYCAPLKPAKSV
notes: On phage; G1S-A70V template; not shown: M13 gene III fragment (residues 249-406), the display carrier, and its junction
B2: IGF-I D20A displayed on phage (ligand)
chain: B1 chain with A12D, D20A
notes: On phage; G1S-A70V template; not shown: Display carrier: M13 gene III protein fragment (residues 249-406) and the junction to it
B3: IGF-I D53A displayed on phage (ligand)
chain: B1 chain with A12D, D53A
notes: On phage; G1S-A70V template; not shown: Display partner: M13 gene III protein fragment (residues 249-406, mature count) and the junction to it
B4: IGF-I E3A displayed on phage (ligand, not shown: large carriers; small tags and cut ends)
chain: B1 chain with E3A, A12D
notes: On phage; G1S-A70V template
B5: IGF-I E9A displayed on phage (ligand)
chain: B1 chain with E9A, A12D
notes: as for B1
B6: IGF-I E58A displayed on phage (ligand)
chain: B1 chain with A12D, E58A
notes: On phage; G1S-A70V template; not shown: M13 gene III protein fragment (residues 249-406), the phage display carrier, and its junction to IGF-I
B7: IGF-I F16A displayed on phage (ligand)
chain: B1 chain with A12D, F16A
notes: as for B1
B8: IGF-I F23A displayed on phage (ligand)
chain: B1 chain with A12D, F23A
notes: as for B2
B9: IGF-I F25A displayed on phage (ligand)
chain: B1 chain with A12D, F25A
notes: as for B2
B10: IGF-I G19A displayed on phage (ligand)
chain: B1 chain with A12D, G19A
notes: as for B1
B11: IGF-I G22A displayed on phage (ligand)
chain: B1 chain with A12D, G22A
notes: as for B2
B12: IGF-I K27A displayed on phage (ligand)
chain: B1 chain with A12D, K27A
notes: as for B2
B13: IGF-I K65A displayed on phage (ligand)
chain: B1 chain with A12D, K65A
notes: as for B6
B14: IGF-I K68A displayed on phage (ligand, not shown: large carriers; small tags and cut ends)
chain: B1 chain with A12D, K68A
notes: On phage; G1S-A70V template
B15: IGF-I L5A displayed on phage (ligand, not shown: large carriers; small tags and cut ends)
chain: B1 chain with L5A, A12D
notes: On phage; G1S-A70V template
B16: IGF-I L10A displayed on phage (ligand)
chain: B1 chain with L10A, A12D
notes: as for B1
B17: IGF-I L14A displayed on phage (ligand)
chain: B1 chain with A12D, L14A
notes: as for B1
B18: IGF-I L54A displayed on phage (ligand)
chain: B1 chain with A12D, L54A
notes: as for B3
B19: IGF-I L57A displayed on phage (ligand)
chain: B1 chain with A12D, L57A
notes: as for B6
B20: IGF-I L64A displayed on phage (ligand)
chain: B1 chain with A12D, L64A
notes: as for B6
B21: IGF-I M59A displayed on phage (ligand)
chain: B1 chain with A12D, M59A
notes: as for B6
B22: IGF-I N26A displayed on phage (ligand)
chain: B1 chain with A12D, N26A
notes: as for B2

molecular target: T1, human IGFBP-1 (human, UniProt P08833 26-259); test: competitive phage ELISA
T1 construct: mature; Secreted recombinant protein; also called IGFBP-I
T1 sequence (looked up): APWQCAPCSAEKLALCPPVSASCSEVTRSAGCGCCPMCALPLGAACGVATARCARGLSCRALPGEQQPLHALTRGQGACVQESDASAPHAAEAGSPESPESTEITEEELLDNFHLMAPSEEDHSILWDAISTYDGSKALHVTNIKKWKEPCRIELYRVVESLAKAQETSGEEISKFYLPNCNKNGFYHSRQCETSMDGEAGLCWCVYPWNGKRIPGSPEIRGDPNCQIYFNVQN
Description: (§1) Phage particles were harvested and resuspended in PBS buffer as described in Lowman, H. B., "Phage Display of Peptide Libraries on Protein Scaffolds," in Cabilly, S. (ed.), *Combinatorial Peptide Library Protocols* (Humana Press Inc.: Totowa, N.J., 1998), pp. 249–264. Then phage concentrations were normalized to yield a maximal ELISA signal of 0.2–0.4 for each mutant (Lowman, in Cabilly, S. (ed.), supra). Threefold serial dilutions of soluble competitor were prepared on non-absorbent microtiter plates (Nunc, F, 96 wells) with binding buffer (0.5% TWEEN™ 20/PBS) containing phage at the previously-determined concentrations. The dilution range of competitor protein extended over six orders of magnitude, starting at 5 µM for IGFBP-1 and 500 nM for IGFBP-3. After blocking, the plates containing immobilized target were washed with 0.05% TWEEN™/PBS buffer and subsequently incubated with 80 µl/well of the premixed phage-competitor solutions for 1 hour at room temperature. […] Numbers in Table I represent mean±standard deviation of individually assessed $IC50$ values.
(§2) At least two different clones of every mutant were tested.

Row | Binder | IC50 [nM]
1 | B1 | 4.3
2 | B2 | 8.4
3 | B3 | 15.3
4 | B4 | 278
5 | B5 | 8.6
6 | B6 | 11.9
7 | B7 | 57.8
8 | B8 | 10.9
9 | B9 | 181
10 | B10 | 11
11 | B11 | 15.9
12 | B12 | 12.8
13 | B13 | 12.4
14 | B14 | 10.5
15 | B15 | 55.3
16 | B16 | 311
17 | B17 | 36.7
18 | B18 | 23.1
19 | B19 | 21.8
20 | B20 | 12.1
21 | B21 | 13.1
22 | B22 | 9.1

molecular target: T2, recombinant human IGFBP-3 (human, UniProt P17936 28-291); test: competitive phage ELISA
T2 construct: mature; Secreted recombinant protein
Description: as §1, §2

T2 sequence (P17936 28-291): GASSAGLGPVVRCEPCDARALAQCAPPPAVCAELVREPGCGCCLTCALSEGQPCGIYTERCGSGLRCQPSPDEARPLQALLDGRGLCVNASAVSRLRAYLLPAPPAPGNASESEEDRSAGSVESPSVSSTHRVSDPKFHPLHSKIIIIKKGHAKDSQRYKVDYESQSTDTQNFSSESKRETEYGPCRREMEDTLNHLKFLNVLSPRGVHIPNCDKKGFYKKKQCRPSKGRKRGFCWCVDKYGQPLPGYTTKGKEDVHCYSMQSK

Row | Binder | IC50 [nM]
23 | B1 | 1.49
24 | B2 | 1.11
25 | B3 | 1.05
26 | B4 | 1.05
27 | B5 | 1.32
28 | B6 | 1.03
29 | B7 | 1.32
30 | B8 | 2.18
31 | B9 | 3.69
32 | B10 | 0.9
33 | B11 | 2.07
34 | B12 | 0.66
35 | B13 | 0.69
36 | B14 | 0.76
37 | B15 | 1.53
38 | B16 | 3.55
39 | B17 | 0.9
40 | B18 | 1.83
41 | B19 | 1.78
42 | B20 | 0.93
43 | B21 | 0.74
44 | B22 | 0.9
